Article PMC1635277

How the values were obtained:
Assay in all cases: purified protein
Conditions in all cases: 20 mM Tris-HCl pH 8.5, 50 mM NaCl, 100 µg/ml BSA, 37°C
[1] = tested on: Nc1nc2c(ncn2[C@@H]2O[C@H](CO)[C@@H](OP(=O)(O)OC[C@H]3O[C@@H](n4ccc(=O)[nH]c4=O)[C@H](O)[C@@H]3OP(=O)(O)O)[C@H]2O)c(=O)[nH]1
[2] = tested on: Nc1nc2c(ncn2[C@@H]2O[C@H](CO)[C@@H](OP(=O)(O)OC[C@H]3O[C@@H](n4ccc(=O)[nH]c4=O)[C@H](O)[C@@H]3OP(=O)(O)OC[C@H]3O[C@@H](n4cnc5c(N)ncnc54)[C@H](O)[C@@H]3O)[C@H]2O)c(=O)[nH]1
[3] = tested on: Nc1nc2c(ncn2[C@@H]2O[C@H](COP(=O)(O)O[C@H]3[C@@H](O)[C@H](n4ccc(=O)[nH]c4=O)O[C@@H]3CO)[C@@H](OP(=O)(O)OC[C@H]3O[C@@H](n4ccc(=O)[nH]c4=O)[C@H](O)[C@@H]3O)[C@H]2O)c(=O)[nH]1
[4] = tested on: Nc1nc2c(ncn2[C@@H]2O[C@H](COP(=O)(O)O[C@H]3[C@@H](O)[C@H](n4ccc(=O)[nH]c4=O)O[C@@H]3CO)[C@@H](OP(=O)(O)OC[C@H]3O[C@@H](n4ccc(=O)[nH]c4=O)[C@H](O)[C@@H]3OP(=O)(O)O)[C@H]2O)c(=O)[nH]1
[5] = tested on: Nc1nc2c(ncn2[C@@H]2O[C@H](COP(=O)(O)O[C@H]3[C@@H](O)[C@H](n4ccc(=O)[nH]c4=O)O[C@@H]3CO)[C@@H](OP(=O)(O)OC[C@H]3O[C@@H](n4ccc(=O)[nH]c4=O)[C@H](O)[C@@H]3OP(=O)(O)OC[C@H]3O[C@@H](n4cnc5c(N)ncnc54)[C@H](O)[C@@H]3O)[C@H]2O)c(=O)[nH]1
[6] = tested on: Nc1nc2c(ncn2[C@@H]2O[C@H](COP(=O)(O)O[C@H]3[C@@H](O)[C@H](n4cnc5c(N)ncnc54)O[C@@H]3CO)[C@@H](OP(=O)(O)OC[C@H]3O[C@@H](n4ccc(=O)[nH]c4=O)[C@H](O)[C@@H]3OP(=O)(O)OC[C@H]3O[C@@H](n4cnc5c(N)ncnc54)[C@H](O)[C@@H]3O)[C@H]2O)c(=O)[nH]1

Substance: E5-CRD (colicin E5 C-terminal ribonuclease domain) (Escherichia coli)
- Km [1]: 32.9 (5.5) μM
- kcat [1]: 42.9 s⁻¹
- kcat/Km [1]: 1.3e+06 M⁻¹ s⁻¹
- Km [2]: 53.6 (16) μM
- kcat [2]: 11.7 s⁻¹
- kcat/Km [2]: 218000 M⁻¹ s⁻¹
- Km [3]: 143 (38) μM
- kcat [3]: 3.57 s⁻¹
- kcat/Km [3]: 25100 M⁻¹ s⁻¹
- Km [4]: 41.3 (16) μM
- kcat [4]: 34 s⁻¹
- kcat/Km [4]: 823000 M⁻¹ s⁻¹
- Km [5]: 59.5 (18) μM
- kcat [5]: 84.2 s⁻¹
- kcat/Km [5]: 1.41e+06 M⁻¹ s⁻¹
- Km [6]: 90.6 (23) μM
- kcat [6]: 65.8 s⁻¹
- kcat/Km [6]: 730000 M⁻¹ s⁻¹
